B6: PRDC with the unpaired cysteine mutated to serine (C120S), bacterially produced (natural protein, mouse, UniProt O88273 22-168, looked up)
chain: RKNRPAGAIPSPYKDGSSNNSERWHHQIKEVLASSQEALVVTERKYLKSDWCKTQPLRQTVSEEGCRSRTILNRFCYGQCNSFYIPRHVKKEEDSFQSSAFCKPQRVTSVIVELECPGLDPPFRIKKIQKVKHCRCMSVNLSDSDKQ

How the values were obtained:
[1] = biological target: the molecule itself; assay: MALDI-TOF mass spectrometry
SEC = biological target: the molecule itself; assay: SEC
[2] = biological target: B6; assay: SPR
AUC = biological target: the molecule itself; assay: AUC
cross-linking = biological target: the molecule itself; assay: cross-linking

B1: activin A (ligand, UniProt P08476 311-426, looked up)
chain: GLECDGKVNICCKKQFFVSFKDIGWNDWIIAPSGYHANYCEGECPSHIAGTSGSSLSFHSTVINHYRMRGHSPFANLKSCCVPTKLRPMSMLYYDDGQNIIKKDIQNMIVEECGCS
stoichiometry N [1]: 2

B2: Protein related to DAN and Cerberus (PRDC), wild type, bacterially produced (natural protein, mouse, UniProt O88273 22-168, looked up)
chain: RKNRPAGAIPSPYKDGSSNNSERWHHQIKEVLASSQEALVVTERKYLKSDWCKTQPLRQTVSEEGCRSRTILNRFCYGQCNSFYIPRHVKKEEDSFQSCAFCKPQRVTSVIVELECPGLDPPFRIKKIQKVKHCRCMSVNLSDSDKQ
modifications: a single glutathione (by mass spectrometry; residue not stated)
stoichiometry N (SEC): 2

B3: BMP2 (ligand, UniProt P12643 283-396, looked up)
chain: QAKHKQRKRLKSSCKRHPLYVDFSDVGWNDWIVAPPGYHAFYCHGECPFPLADHLNSTNHAIVQTLVNSVNSKIPKACCVPTELSAISMLYLDENEKVVLKNYQDMVVEGCGCR
Kd [2]: 57.1 ± 7.8 nM

B4: BMP4 (ligand, UniProt P12644 293-408, looked up)
chain: SPKHHSQRARKKNKNCRRHSLYVDFSDVGWNDWIVAPPGYQAFYCHGDCPFPLADHLNSTNHAIVQTLVNSVNSSIPKACCVPTELSAISMLYLDEYDKVVLKNYQEMVVEGCGCR
Kd [2]: 70.7 ± 2.6 nM

B5: BMP7 (ligand, UniProt P18075 293-431, looked up)
chain: STGSKQRSQNRSKTPKNQEALRMANVAENSSSDQRQACKKHELYVSFRDLGWQDWIIAPEGYAAYYCEGECAFPLNSYMNATNHAIVQTLVHFINPETVPKPCCAPTQLNAISVLYFDDSSNVILKKYRNMVVRACGCH
Kd [2]: 86.6 ± 3.7 nM

B6
stoichiometry N (AUC): 2

B7: DAN (differential screening selected gene abberative in neuroblastoma) (natural protein, human)
chain: AAPPPINKLALFPDKSAWCEAKNITQIVGHSGCEAKSIQNRACLGQCFSYSVPNTFPQSTESLVHCDSCMPAQSMWEIVTLECPGHEEVPRVDKLVEKILHCSCQACGKEPSHEGLSVYVQGEDGPGSQPGTHPHPHPHPHPGGQTPEPEDPPGAPHTEEEGAEDLEVLFQ
stoichiometry N (cross-linking): 2

From paper PMC3509953 (Journal of molecular biology, 2012)
